Laboratory results taken from patent publication US20240376218A1.

Key:
[1] = target: FcRn immobilized on FcRn column (Roche, Order No. 8128057001); assay: FcRn affinity chromatography, linear pH gradient
[2] = target: human CCR8 tagged with ProLink (human); assay: cell-based or functional assay
[3] = target: cynomolgus CCR8 (cynomolgus); assay: FACS, CHO cells expressing cynomolgus CCR8, signal at saturation
human CCR8 (human) = human CCR8 (human) (UniProt P51685); assay: cell-based or functional assay
[4] = target: human CCR4 (P51679_CCR4_HUMAN) (human) (UniProt P51679); assay: cell-based or functional assay
Sequence of human CCR4 (P51679_CCR4_HUMAN) (human) (P51679 whole entry): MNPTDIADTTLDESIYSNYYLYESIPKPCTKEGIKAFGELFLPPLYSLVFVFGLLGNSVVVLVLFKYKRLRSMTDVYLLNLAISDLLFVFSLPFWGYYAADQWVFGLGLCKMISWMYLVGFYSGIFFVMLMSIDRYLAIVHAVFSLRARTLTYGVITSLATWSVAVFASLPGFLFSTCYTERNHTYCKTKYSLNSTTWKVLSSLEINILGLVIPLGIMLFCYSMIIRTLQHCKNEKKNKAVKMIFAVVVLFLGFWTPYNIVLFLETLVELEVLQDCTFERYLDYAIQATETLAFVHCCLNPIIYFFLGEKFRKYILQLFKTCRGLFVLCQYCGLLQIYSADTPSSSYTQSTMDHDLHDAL

human CCR4 (human) = human CCR4 (human) (UniProt P51679); assay: cell-based or functional assay
Sequence of human CCR4 (human) (P51679 whole entry): as above

murine CCR8 (mouse) = murine CCR8 (mouse) (UniProt P56484); assay: cell-based or functional assay
Sequence of murine CCR8 (mouse) (P56484 whole entry): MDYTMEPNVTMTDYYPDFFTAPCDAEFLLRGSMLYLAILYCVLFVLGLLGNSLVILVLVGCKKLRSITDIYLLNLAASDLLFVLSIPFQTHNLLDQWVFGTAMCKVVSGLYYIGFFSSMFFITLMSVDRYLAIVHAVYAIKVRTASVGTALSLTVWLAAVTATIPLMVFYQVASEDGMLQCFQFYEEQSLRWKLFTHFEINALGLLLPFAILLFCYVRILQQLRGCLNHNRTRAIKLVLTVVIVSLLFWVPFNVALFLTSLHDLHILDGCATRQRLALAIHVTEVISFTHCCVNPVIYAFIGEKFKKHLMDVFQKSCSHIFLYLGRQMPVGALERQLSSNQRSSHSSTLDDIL

Sequence of FcRn immobilized on FcRn column (Roche, Order No. 8128057001) (P55899 24-297, chain 1 of 2): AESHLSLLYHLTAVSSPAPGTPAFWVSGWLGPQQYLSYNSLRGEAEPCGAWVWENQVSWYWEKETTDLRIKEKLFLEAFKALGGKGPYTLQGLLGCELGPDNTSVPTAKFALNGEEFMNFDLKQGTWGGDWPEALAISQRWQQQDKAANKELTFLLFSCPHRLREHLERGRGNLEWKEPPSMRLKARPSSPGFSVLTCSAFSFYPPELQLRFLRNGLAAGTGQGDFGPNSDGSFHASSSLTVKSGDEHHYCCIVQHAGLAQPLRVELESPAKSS
Sequence of FcRn immobilized on FcRn column (Roche, Order No. 8128057001) (P61769 21-119, chain 2 of 2, further chain): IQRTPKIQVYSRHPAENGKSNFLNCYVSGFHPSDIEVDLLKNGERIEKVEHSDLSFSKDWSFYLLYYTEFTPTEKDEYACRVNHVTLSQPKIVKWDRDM
Sequence of Ustekinumab (antibody) (HC): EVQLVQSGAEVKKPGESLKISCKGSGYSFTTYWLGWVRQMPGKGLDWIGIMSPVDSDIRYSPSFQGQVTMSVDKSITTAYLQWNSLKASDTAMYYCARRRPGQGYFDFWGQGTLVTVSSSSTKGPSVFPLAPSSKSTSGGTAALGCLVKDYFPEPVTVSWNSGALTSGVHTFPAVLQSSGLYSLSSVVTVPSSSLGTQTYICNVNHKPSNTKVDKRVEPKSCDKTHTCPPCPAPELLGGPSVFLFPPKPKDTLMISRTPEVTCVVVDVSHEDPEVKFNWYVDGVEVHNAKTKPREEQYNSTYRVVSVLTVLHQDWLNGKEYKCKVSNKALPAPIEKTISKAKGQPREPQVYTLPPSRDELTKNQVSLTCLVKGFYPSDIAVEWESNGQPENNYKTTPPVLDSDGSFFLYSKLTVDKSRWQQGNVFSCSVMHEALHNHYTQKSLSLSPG
Sequence of Ustekinumab (antibody) (LC): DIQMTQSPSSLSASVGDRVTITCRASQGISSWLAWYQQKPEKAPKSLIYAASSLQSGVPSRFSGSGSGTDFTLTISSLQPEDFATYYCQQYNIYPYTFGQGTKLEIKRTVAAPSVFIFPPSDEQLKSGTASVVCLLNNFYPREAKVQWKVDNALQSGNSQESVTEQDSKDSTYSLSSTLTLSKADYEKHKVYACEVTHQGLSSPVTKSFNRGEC
Sequence of cynomolgus CCR8 (cynomolgus) (O97665 other isoform, or with tags, fused parts or gaps): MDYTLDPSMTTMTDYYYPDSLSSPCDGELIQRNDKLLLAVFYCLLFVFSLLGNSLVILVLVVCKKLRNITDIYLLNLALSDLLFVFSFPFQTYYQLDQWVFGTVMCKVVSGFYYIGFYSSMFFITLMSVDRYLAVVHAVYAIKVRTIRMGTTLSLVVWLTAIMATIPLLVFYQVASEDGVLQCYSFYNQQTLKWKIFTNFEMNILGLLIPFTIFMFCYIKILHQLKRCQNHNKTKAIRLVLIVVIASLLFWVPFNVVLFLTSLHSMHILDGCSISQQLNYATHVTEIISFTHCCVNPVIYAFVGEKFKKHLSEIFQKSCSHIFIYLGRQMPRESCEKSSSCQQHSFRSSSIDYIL

With Briakinumab (antibody) the pH at Elution [1] was 7.85 pH.

Substance “CCL1 (human) (from UniProt P22362 24-96) (ligand)” has an EC80 of β-arrestin signaling (DiscoverX assay) [2] of 0.02 µg/mL.

With L263G8 (Biolegend) (antibody) the MFI [3] was under 1000.

For L263G8 (antibody), the Ca flux assay IC50 (nM), block of signaling induced by CCL1 at 60 ng/ml; CHO cells expressing human CCR8 (human CCR8 (human)) was 1.26 nM, the Ca flux assay Span ratio (from max to min), block of signaling induced by CCL1 at 60 ng/ml; CHO cells expressing human CCR8 (human CCR8 (human)) was 921 and the Internalization [fold isotype], HuT78 cells, BODIPY FL-labelled antibody (human CCR8 (human)) was 22 fold isotype. The IC50 in nM for inhibition of CCL1 induced β-arrestin signaling (DiscoverX assay), CHO with hCCR8 [2] was 13.8 nM.

For Mogamulizumab (antibody), the ADCC EC50, activated Tregs + NK92v, Donor 1213 [4] was 0.31 nM, the ADCC EC50, activated Tregs + NK92v, Donor 1730 [4] was 1.09 nM and the ADCC Max Response, activated Tregs + NK92v, Donor 1213 [4] was 58%. It also gave an ADCC Max Response, activated Tregs + NK92v, Donor 1730 [4] of 65%, an ADCC Max Response (%); activated human Tregs (Donor 1100) as target cells, NK92v effector cells (human CCR4 (human)) of 96% and an ADCC Max Response (%); activated human Tregs (Donor 1100), NK92v effector cells (human CCR4 (human)) of 74%. For the same substance, the ADCC Max Response (%); activated human Tregs (Donor 1261), NK92v effector cells (human CCR4 (human)) was 71%, the ADCC hTreg EC50 (pM); activated human Tregs (Donor 1100) as target cells, NK92v effector cells (human CCR4 (human)) was 35.2 pM and the ADCC hTreg EC50 (pM); activated human Tregs (Donor 1100), NK92v effector cells (human CCR4 (human)) was 193 pM. For the same substance, the ADCC hTreg EC50 (pM); activated human Tregs (Donor 1261), NK92v effector cells (human CCR4 (human)) was 86.4 pM.

SA214G2 (antibody) was tested, and the Internalization [fold isotype], mBW5147.3 cells, BODIPY FL-labelled antibody (murine CCR8 (mouse)) was 11 fold isotype.

For Ustekinumab (antibody), the pH at Elution [1] was 7.22 pH.
